Here are results for one molecule from publication PMC5514624.

The target of one series is T1, SRCRP2-11-R (Homo sapiens, UniProt Q9UGM3, E4R).
T1 chain: GRVRVLYRGSW
The experiment in a line: EMSA. (In EMSA bound probe runs differently from free probe, usually more slowly.)

Another series deals with T2, SRCRP2-11 (Homo sapiens, UniProt Q9UGM3).
T2 chain: GRVEVLYRGSW
The series is described as follows: EMSA.

B1: tdTomato1 siRNA (dsRNA)
RNA 1: UUGGUGUCCACGUAGUAGUAG
RNA 2: CUACUACUACGUGGACACCAA
On to B1, for which the binding result with SRCRP2-11-R and in the series with SRCRP2-11 was “binds” each time.
